Sequences and labels used below:
B1: NLV3 TCR beta chain (CDR3β only) (parent)
chain: ASSPTGGSPSPLH
partner: NLCPMVATV
B2: NLV3 TCR beta chain (CDR3β only) (parent)
chain: ASSPTGGSPSPLH

The variants in the first assay derive from B1. As to the kind of experiment: T-Switch: Jurkat TCRβ−/− cells expressing a CDR3 saturation-mutagenesis library, stained with two peptide-HLA-A*02:01 tetramers (original and novel peptide) plus anti-CD3, FACS-sorted into four gates, gDNA sequenced. To be noted: with HLA-A*02:01 with peptide … (NLV 2-1, the novel peptide), tetramers 1 µg/mL, 30 min on ice, SP, DP and SW gates expanded about 10 days between rounds ('two to three rounds of selection' in the Methods), gate SW: higher = more of the variant in the gate that binds the novel peptide and not the original one = switched binding. Fold enrichment of the CDR3 variant in one FACS gate of a two-tetramer stain, unresolved parent, parent is a CDR3 fragment, scale: fold enrichment, numbering: sequential-on-construct, sequence starts at 1.
For the variant […] (CDR3 as printed); S2C derived by comparing it with the table's wild-type CDR3 ASSPTGGSPSPLH, the enrichment was 0.

For the variant […] (CDR3 as printed); P4H derived by comparing it with the table's wild-type CDR3 ASSPTGGSPSPLH, the enrichment stood at 0. Regarding […] (CDR3 as printed); P9C derived by comparing it with the table's wild-type CDR3 ASSPTGGSPSPLH, the enrichment is 0. On the same count and under the same terms, the result for […] (CDR3 as printed); T5S derived by comparing it with the table's wild-type CDR3 ASSPTGGSPSPLH reads 0. Turning to […] (CDR3 as printed); P4F derived by comparing it with the table's wild-type CDR3 ASSPTGGSPSPLH, the enrichment stood at 0.

On to […] (CDR3 as printed); T5D derived by comparing it with the table's wild-type CDR3 ASSPTGGSPSPLH, for which the enrichment was 0. Turning to […] (CDR3 as printed); G7S derived by comparing it with the table's wild-type CDR3 ASSPTGGSPSPLH, the enrichment worked out at 0.

For the variant […] (CDR3 as printed); G6M derived by comparing it with the table's wild-type CDR3 ASSPTGGSPSPLH, the enrichment worked out at 0. On to […] (CDR3 as printed); G7W derived by comparing it with the table's wild-type CDR3 ASSPTGGSPSPLH, for which the enrichment came to 0. For […] (CDR3 as printed); S10R derived by comparing it with the table's wild-type CDR3 ASSPTGGSPSPLH, the enrichment turned out to be 0. With […] (CDR3 as printed); T5H derived by comparing it with the table's wild-type CDR3 ASSPTGGSPSPLH, the enrichment is 0. In the case of […] (CDR3 as printed); G7Y derived by comparing it with the table's wild-type CDR3 ASSPTGGSPSPLH, the enrichment stood at 0. For […] (CDR3 as printed); P9D derived by comparing it with the table's wild-type CDR3 ASSPTGGSPSPLH, the enrichment amounted to 0.

As to […] (CDR3 as printed); S2A derived by comparing it with the table's wild-type CDR3 ASSPTGGSPSPLH, the enrichment was 0. Consider […] (CDR3 as printed); G6T derived by comparing it with the table's wild-type CDR3 ASSPTGGSPSPLH, for which the enrichment was 0.

As for […] (CDR3 as printed); P9I derived by comparing it with the table's wild-type CDR3 ASSPTGGSPSPLH, the enrichment turned out to be 0.

As for […] (CDR3 as printed); G7Q derived by comparing it with the table's wild-type CDR3 ASSPTGGSPSPLH, the enrichment came to 0. Consider […] (CDR3 as printed); P4Y derived by comparing it with the table's wild-type CDR3 ASSPTGGSPSPLH, for which the enrichment amounted to 0. On the same count and under the same terms, the result for […] (CDR3 as printed); A1W derived by comparing it with the table's wild-type CDR3 ASSPTGGSPSPLH reads 0; that for […] (CDR3 as printed); P9A derived by comparing it with the table's wild-type CDR3 ASSPTGGSPSPLH, 0. As for […] (CDR3 as printed); S3L derived by comparing it with the table's wild-type CDR3 ASSPTGGSPSPLH, the enrichment stood at 0. Take […] (CDR3 as printed); S2N derived by comparing it with the table's wild-type CDR3 ASSPTGGSPSPLH: the enrichment is 0.

For […] (CDR3 as printed); S3M derived by comparing it with the table's wild-type CDR3 ASSPTGGSPSPLH, the enrichment came to 0.

In the case of […] (CDR3 as printed); T5V derived by comparing it with the table's wild-type CDR3 ASSPTGGSPSPLH, the enrichment turned out to be 0. Consider […] (CDR3 as printed); L12P derived by comparing it with the table's wild-type CDR3 ASSPTGGSPSPLH, for which the enrichment turned out to be 0.

In another assay the parent is B2. The description is as above. As to conditions: with both tetramers (double-negative gate, binds neither): HLA-A*02:01 with … and with …, tetramers 1 µg/mL, 30 min on ice, SP, DP and SW gates expanded about 10 days between rounds ('two to three rounds of selection' in the Methods), gate DN: OPPOSITE: higher = more of the variant in the gate that binds neither peptide = LESS binding (or no expression; inferred). Fold enrichment of the CDR3 variant in one FACS gate of a two-tetram, unresolved parent, parent is a CDR3 fragment, scale: fold enrichment, numbering: sequential-on-construct, sequence starts at 1.
Consider […] (CDR3 as printed); T5P derived by comparing it with the table's wild-type CDR3 ASSPTGGSPSPLH, for which the enrichment is 1.04.

Take […] (CDR3 as printed); T5W derived by comparing it with the table's wild-type CDR3 ASSPTGGSPSPLH: the enrichment is 0.

As to […] (CDR3 as printed); T5S derived by comparing it with the table's wild-type CDR3 ASSPTGGSPSPLH, the enrichment is 0.633.

As to […] (CDR3 as printed); T5Y derived by comparing it with the table's wild-type CDR3 ASSPTGGSPSPLH, the enrichment came to 0.587. Turning to […] (CDR3 as printed); T5Q derived by comparing it with the table's wild-type CDR3 ASSPTGGSPSPLH, the enrichment worked out at 1.16. […] (CDR3 as printed); T5V derived by comparing it with the table's wild-type CDR3 ASSPTGGSPSPLH: the enrichment was 0.249. For […] (CDR3 as printed); T5R derived by comparing it with the table's wild-type CDR3 ASSPTGGSPSPLH, the enrichment came to 1.07.

Staying with this assay, now noted: with both tetramers (double-positive gate): HLA-A*02:01 with … and with …, tetramers 1 µg/mL, 30 min on ice, SP, DP and SW gates expanded about 10 days between rounds ('two to three rounds of selection' in the Methods), gate DP: higher = more of the variant in the gate that binds both peptides. Fold enrichment of the CDR3 variant in one FACS gate of a two-tetramer stain. SP/DP/SW gates were expanded and re-sorted bef, unresolved parent, parent is a CDR3 fragment, scale: fold enrichment, numbering: sequential-on-construct, sequence starts at 1.
For the variant […] (CDR3 as printed); T5P derived by comparing it with the table's wild-type CDR3 ASSPTGGSPSPLH, the enrichment is 0. Same read-out and setting: to […] (CDR3 as printed); T5W derived by comparing it with the table's wild-type CDR3 ASSPTGGSPSPLH belongs 0. The same measure, in the same setting: the result for […] (CDR3 as printed); T5S derived by comparing it with the table's wild-type CDR3 ASSPTGGSPSPLH reads 0. With […] (CDR3 as printed); T5Y derived by comparing it with the table's wild-type CDR3 ASSPTGGSPSPLH, the enrichment stood at 0. Consider […] (CDR3 as printed); T5Q derived by comparing it with the table's wild-type CDR3 ASSPTGGSPSPLH, for which the enrichment turned out to be 0.

[…] (CDR3 as printed); T5V derived by comparing it with the table's wild-type CDR3 ASSPTGGSPSPLH: the enrichment was found to be 0. Take […] (CDR3 as printed); T5R derived by comparing it with the table's wild-type CDR3 ASSPTGGSPSPLH: the enrichment was 0.

The same assay, now with this note: with both tetramers (double-negative gate, binds neither): HLA-A*02:01 with … and with …, tetramers 1 µg/mL, 30 min on ice, SP, DP and SW gates expanded about 10 days between rounds ('two to three rounds of selection' in the Methods), gate DN: OPPOSITE: higher = more of the variant in the gate that binds neither peptide = LESS binding (or no expression; inferred). Fold enrichment of the CDR3 variant in one FACS gate of a two-tetram, unresolved parent, parent is a CDR3 fragment, zero in all gates, scale: fold enrichment, numbering: sequential-on-construct, ….
With […] (CDR3 as printed); S2L derived by comparing it with the table's wild-type CDR3 ASSPTGGSPSPLH, the enrichment worked out at 0. With […] (CDR3 as printed); G7P derived by comparing it with the table's wild-type CDR3 ASSPTGGSPSPLH, the enrichment was determined as 0.

The same assay, now with this note: with both tetramers (double-positive gate): HLA-A*02:01 with … and with …, tetramers 1 µg/mL, 30 min on ice, SP, DP and SW gates expanded about 10 days between rounds ('two to three rounds of selection' in the Methods), gate DP: higher = more of the variant in the gate that binds both peptides. Fold enrichment of the CDR3 variant in one FACS gate of a two-tetramer stain. SP/DP/SW gates were expanded and re-sorted bef, unresolved parent, parent is a CDR3 fragment, zero in all gates, scale: fold enrichment, numbering: sequential-on-construct, sequence starts at 1.
For the variant […] (CDR3 as printed); S2L derived by comparing it with the table's wild-type CDR3 ASSPTGGSPSPLH, the enrichment is 0. Consider […] (CDR3 as printed); G7P derived by comparing it with the table's wild-type CDR3 ASSPTGGSPSPLH, for which the enrichment was 0.
